Target: CD20 on human lymphoma cells (Daudi, Jeko-1) (human) (UniProt P11836)
Assay: cell-based or functional assay

Chain of UniProt P11836 (P11836 whole entry): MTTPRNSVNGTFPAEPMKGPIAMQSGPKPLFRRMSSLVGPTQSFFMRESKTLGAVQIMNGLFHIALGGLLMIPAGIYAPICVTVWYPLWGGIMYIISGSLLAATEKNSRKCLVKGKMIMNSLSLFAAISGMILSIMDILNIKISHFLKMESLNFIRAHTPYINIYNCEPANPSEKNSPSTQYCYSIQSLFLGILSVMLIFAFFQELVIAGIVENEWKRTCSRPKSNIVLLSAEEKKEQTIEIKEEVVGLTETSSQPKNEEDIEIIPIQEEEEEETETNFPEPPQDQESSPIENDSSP

| Substance | in vitro proliferation assay, Jeko-1 cells (MTS), high-concentration response | in vitro proliferation assay, Jeko-1 cells (MTS), low-concentration IFNα2b response | in vitro proliferation assay, Jeko-1 cells (MTS) |
| --- | --- | --- | --- |
| 20-2b, a DNL conjugate of CH3-AD2-IgG-hA20 (CH3-AD2-IgG-v-mab) with four IFN-α2b-DDD2 moieties (from UniProt P01563 24-188) | 0.85 nM | 0.97 pM |  |
| veltuzumab (humanized anti-CD20 MAb hA20) (antibody) |  |  | 1.5 nM |

Reference: patent EP2271364B1
